The values below come from publication PMC7397094.

This assay concerns the target human recombinant RetGC1 (retinal membrane guanylyl cyclase 1) (human) (UniProt Q02846).
Sequence of UniProt Q02846 (Q02846 52-1103): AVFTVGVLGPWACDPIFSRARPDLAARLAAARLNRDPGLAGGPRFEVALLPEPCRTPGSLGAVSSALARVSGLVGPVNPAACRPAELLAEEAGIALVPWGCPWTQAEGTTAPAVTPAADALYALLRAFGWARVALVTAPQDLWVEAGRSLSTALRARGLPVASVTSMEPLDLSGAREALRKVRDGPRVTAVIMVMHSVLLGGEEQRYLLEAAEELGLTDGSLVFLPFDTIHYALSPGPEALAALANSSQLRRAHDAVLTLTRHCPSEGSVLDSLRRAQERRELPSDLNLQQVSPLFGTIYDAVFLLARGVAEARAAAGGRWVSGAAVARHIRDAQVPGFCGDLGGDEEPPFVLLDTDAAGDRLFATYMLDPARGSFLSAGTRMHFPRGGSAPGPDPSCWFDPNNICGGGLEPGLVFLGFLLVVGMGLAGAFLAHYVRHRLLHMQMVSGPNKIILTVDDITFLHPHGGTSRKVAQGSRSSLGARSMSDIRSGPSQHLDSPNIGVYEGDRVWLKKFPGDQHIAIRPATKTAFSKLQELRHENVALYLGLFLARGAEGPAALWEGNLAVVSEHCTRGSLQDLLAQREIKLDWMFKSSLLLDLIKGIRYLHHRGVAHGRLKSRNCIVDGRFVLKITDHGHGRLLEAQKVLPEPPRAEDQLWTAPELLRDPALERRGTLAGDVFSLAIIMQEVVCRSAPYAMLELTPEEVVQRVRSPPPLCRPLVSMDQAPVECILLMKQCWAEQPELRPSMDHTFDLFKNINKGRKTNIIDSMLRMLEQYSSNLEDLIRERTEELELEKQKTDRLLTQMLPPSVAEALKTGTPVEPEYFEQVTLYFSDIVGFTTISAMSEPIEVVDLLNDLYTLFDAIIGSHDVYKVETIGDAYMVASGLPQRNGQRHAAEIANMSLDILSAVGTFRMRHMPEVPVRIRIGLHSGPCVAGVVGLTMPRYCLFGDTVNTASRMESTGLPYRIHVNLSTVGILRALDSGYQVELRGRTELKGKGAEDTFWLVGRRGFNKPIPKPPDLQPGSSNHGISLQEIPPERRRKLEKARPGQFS
As to “RD3 164SDIRT168→164RSDTI168 (from UniProt Q7Z3Z2 1-195) (natural protein)”, the RetGC1 activity left with 100 nM RD3, % of that without RD3 (1.5 uM GCAP1) is 9.5%.
As for “RD3 50AVRK53→50KAIE53 (from UniProt Q7Z3Z2 1-195) (natural protein)”, the figure is 12.4%.
The result for “RD3 L144W (from UniProt Q7Z3Z2 1-195) (natural protein)” reads 7.3%.
Consider “RD3 S143Y (from UniProt Q7Z3Z2 1-195) (natural protein)”, for which the RetGC1 activity left with 100 nM RD3, % of that without RD3 (1.5 uM GCAP1) came out at 9.1%.
As for “RD3 Q116Y (from UniProt Q7Z3Z2 1-195) (natural protein)”, the figure is 10.8%; as for “RD3 D72R (from UniProt Q7Z3Z2 1-195) (natural protein)”, 5.5%; as for “RD3 A22Y (from UniProt Q7Z3Z2 1-195) (natural protein)”, 14.4%.
Turning to “RD3 S120Y (from UniProt Q7Z3Z2 1-195) (natural protein)”, the RetGC1 activity left with 100 nM RD3, % of that without RD3 (1.5 uM GCAP1) stood at 8.2%.
As for “RD3 T34Q (from UniProt Q7Z3Z2 1-195) (natural protein)”, the figure is 8.1%; as for “RD3 S20Y/P21R (from UniProt Q7Z3Z2 1-195) (natural protein)”, 11.5%.
As for “RD3 R42E (from UniProt Q7Z3Z2 1-195) (natural protein)”, the figure is 14.5%; as for “RD3 D83R (from UniProt Q7Z3Z2 1-195) (natural protein)”, 7.2%.
As for “RD3 M31R (from UniProt Q7Z3Z2 1-195) (natural protein)”, the RetGC1 activity left with 100 nM RD3, % of that without RD3 (1.5 uM GCAP1) stood at 6.6%.
The result for “RD3 Q43R (from UniProt Q7Z3Z2 1-195) (natural protein)” reads 5.3%.
As for “RD3 S91Y (from UniProt Q7Z3Z2 1-195) (natural protein)”, the figure is 13.3%; as for “RD3 P90A (from UniProt Q7Z3Z2 1-195) (natural protein)”, 24.2%; as for “RD3 W6L (from UniProt Q7Z3Z2 1-195) (natural protein)”, 11.1%.
As for “RD3 E41R (from UniProt Q7Z3Z2 1-195) (natural protein)”, the RetGC1 activity left with 100 nM RD3, % of that without RD3 (1.5 uM GCAP1) turned out to be 12.6%.
For “RD3 I76R (from UniProt Q7Z3Z2 1-195) (natural protein)”, the RetGC1 activity left with 100 nM RD3, % of that without RD3 (1.5 uM GCAP1) came to 7.5%.
As for “RD3 E110R (from UniProt Q7Z3Z2 1-195) (natural protein)”, the figure is 9.6%; as for “RD3 T70R (from UniProt Q7Z3Z2 1-195) (natural protein)”, 8.2%.
As for “RD3 P75R (from UniProt Q7Z3Z2 1-195) (natural protein)”, the figure is 10.7%.
As for “RD3 45RER47→45AAA47 (from UniProt Q7Z3Z2 1-195) (natural protein)”, the figure is 17.9%; as for “RD3 L103R (from UniProt Q7Z3Z2 1-195) (natural protein)”, 12.1%; as for “RD3 A22E (from UniProt Q7Z3Z2 1-195) (natural protein)”, 6.4%.
For the substance “RD3 M24D (from UniProt Q7Z3Z2 1-195) (natural protein)”, the RetGC1 activity left with 100 nM RD3, % of that without RD3 (1.5 uM GCAP1) was 10.9%.
As for “RD3 L98Y (from UniProt Q7Z3Z2 1-195) (natural protein)”, the figure is 9.9%; as for “RD3 Q123E/E124Q (from UniProt Q7Z3Z2 1-195) (natural protein)”, 11.9%.
Turning to “RD3 R38S (from UniProt Q7Z3Z2 1-195) (natural protein)”, the RetGC1 activity left with 100 nM RD3, % of that without RD3 (1.5 uM GCAP1) is 18.2%.
As for “RD3 137KLTRQ141→137QRKTL141 (from UniProt Q7Z3Z2 1-195) (natural protein)”, the figure is 8.6%; as for “RD3 T56H (from UniProt Q7Z3Z2 1-195) (natural protein)”, 9.2%; as for “RD3 178PPP180→178AAA180 (from UniProt Q7Z3Z2 1-195) (natural protein)”, 8.5%.
The result for “RD3 R145D (from UniProt Q7Z3Z2 1-195) (natural protein)” reads 9.2%; that for “RD3 77ERLQ80→77QLRE80 (from UniProt Q7Z3Z2 1-195) (natural protein)”, 11.5%; that for “RD3 S65Y (from UniProt Q7Z3Z2 1-195) (natural protein)”, 10.8%.
The result for “RD3 W142A (from UniProt Q7Z3Z2 1-195) (natural protein)” reads 7.9%.
For the substance “RD3 E41A (from UniProt Q7Z3Z2 1-195) (natural protein)”, the RetGC1 activity left with 100 nM RD3, % of that without RD3 (1.5 uM GCAP1) was determined as 10.3%.
Take “RD3 A151R/T152Q (from UniProt Q7Z3Z2 1-195) (natural protein)”: the RetGC1 activity left with 100 nM RD3, % of that without RD3 (1.5 uM GCAP1) was determined as 7.1%.
As for “RD3 147RGSL150→147GRLS150 (from UniProt Q7Z3Z2 1-195) (natural protein)”, the figure is 9.6%; as for “RD3 F153R (from UniProt Q7Z3Z2 1-195) (natural protein)”, 7.3%; as for “RD3 154KTRAR158→154ENSES158 (from UniProt Q7Z3Z2 1-195) (natural protein)”, 7.5%.
As for “RD3 P67D (from UniProt Q7Z3Z2 1-195) (natural protein)”, the figure is 11%.
“RD3 132EEE134→132QQQ134 (from UniProt Q7Z3Z2 1-195) (natural protein)”: the RetGC1 activity left with 100 nM RD3, % of that without RD3 (1.5 uM GCAP1) was 11.8%.
The result for “RD3 Y71E (from UniProt Q7Z3Z2 1-195) (natural protein)” reads 16.4%; that for “RD3 E23R (from UniProt Q7Z3Z2 1-195) (natural protein)”, 8.2%; that for “RD3 V58Q (from UniProt Q7Z3Z2 1-195) (natural protein)”, 16.7%.
The result for “RD3 T66K (from UniProt Q7Z3Z2 1-195) (natural protein)” reads 7.3%; that for “RD3 3L→S5 deletion (from UniProt Q7Z3Z2 1-195) (natural protein)”, 3.9%.
As for “RD3 C55D (from UniProt Q7Z3Z2 1-195) (natural protein)”, the figure is 6.9%.
In the case of “RD3 T18D/R19A (from UniProt Q7Z3Z2 1-195) (natural protein)”, the RetGC1 activity left with 100 nM RD3, % of that without RD3 (1.5 uM GCAP1) is 14.9%.
The result for “RD3 V86R/K87A (from UniProt Q7Z3Z2 1-195) (natural protein)” reads 7.1%; that for “RD3 Y71G (from UniProt Q7Z3Z2 1-195) (natural protein)”, 15.4%; that for “RD3 R119S (from UniProt Q7Z3Z2 1-195) (natural protein)”, 12%.
The result for “RD3 A135R (from UniProt Q7Z3Z2 1-195) (natural protein)” reads 9.1%.
As to “RD3 T28R (from UniProt Q7Z3Z2 1-195) (natural protein)”, the RetGC1 activity left with 100 nM RD3, % of that without RD3 (1.5 uM GCAP1) was 15.3%.
The result for “RD3 186SMP188→186PRS188 (from UniProt Q7Z3Z2 1-195) (natural protein)” reads 12.7%; that for “RD3 171EDVERD176→171KKAKQR176 (from UniProt Q7Z3Z2 1-195) (natural protein)”, 2.5%; that for “RD3 Q112E/E113Q (from UniProt Q7Z3Z2 1-195) (natural protein)”, 9.2%.
The result for “RD3 L98R (from UniProt Q7Z3Z2 1-195) (natural protein)” reads 5.9%; that for “RD3 G35Y (from UniProt Q7Z3Z2 1-195) (natural protein)”, 5.5%; that for “RD3 E39R (from UniProt Q7Z3Z2 1-195) (natural protein)”, 6.6%.
As for “RD3 E108K (from UniProt Q7Z3Z2 1-195) (natural protein)”, the figure is 7.1%; as for “RD3 E127R/R128E (from UniProt Q7Z3Z2 1-195) (natural protein)”, 10.1%.
For “RD3 I97Y (from UniProt Q7Z3Z2 1-195) (natural protein)”, the RetGC1 activity left with 100 nM RD3, % of that without RD3 (1.5 uM GCAP1) was 55%.
As for “RD3 P67G (from UniProt Q7Z3Z2 1-195) (natural protein)”, the figure is 11.3%; as for “RD3 R68D (from UniProt Q7Z3Z2 1-195) (natural protein)”, 12.4%.
As for “RD3 A64R (from UniProt Q7Z3Z2 1-195) (natural protein)”, the figure is 15%.
